According to PMC2956063:
Where no end group is shown, it is not given here.

What was measured:
[1] = target: recombinant γN308K fibrinogen (UniProt P02671); assay: plasmin protection assay
[2] = target: normal recombinant fibrinogen (UniProt P02671); assay: plasmin protection assay

- GPRP concentration at which fragment D1 was readily evident [1]: 0.5 mM
- GPRP concentration of full protection [1]: > 20 mM
- fold weaker than normal fibrinogen [1]: 10 fold
- GPRP concentration of full protection [2]: 5 mM
Binder: GPRP-NH2 [GPRP-amide]
